Assays:
Assay in all cases: SPR
[1] = target: MR1 E76Q E149Q refolded with 5-FSA, biotinylated (SPR) (UniProt Q95460)
[2] = target: wildtype MR1 refolded with 6-FP, biotinylated (SPR) (UniProt Q95460)
[3] = target: wildtype MR1 refolded with 5-F-SA, biotinylated (SPR) (UniProt Q95460)
[4] = target: MR1 E76Q E149Q refolded with 6-FP, biotinylated (SPR) (UniProt Q95460)

Measured: Kd

AF-7 TCR
> 150 µM: [1] | [2] | [3] | [4]
